Results from IntAct's records for PubMed 22238662.

B1: Adhesion G-protein coupled receptor G1 (Mus musculus), Q8K209 (parent)
chain: MAVQVLRQMVYFLLSLFSLVQGAHSGSPREDFRFCGQRNQTQQSTLHYDQSSEPHIFVWNTEETLTIRAPFLAAPDIPRFFPEPRGLYHFCLYWSRHTGRLHLRYGKHDYLLSSQASRLLCFQKQEQSLKQGAPLIATSVSSWQIPQNTSLPGAPSFIFSFHNAPHKVSHNASVDMCDLKKELQQLSRYLQHPQKAAKRPTAAFISQQLQSLESKLTSVSFLGDTLSFEEDRVNATVWKLPPTAGLEDLHIHSQKEEEQSEVQAYSLLLPRAVFQQTRGRRRDDAKRLLVVDFSSQALFQDKNSSQVLGEKVLGIVVQNTKVTNLSDPVVLTFQHQPQPKNVTLQCVFWVEDPASSSTGSWSSAGCETVSRDTQTSCLCNHLTYFAVLMVSSTEVEATHKHYLTLLSYVGCVISALACVFTIAAYLCSRRKSRDYTIKVHMNLLSAVFLLDVSFLLSEPVALTGSEAACRTSAMFLHFSLLACLSWMGLEGYNLYRLVVEVFGTYVPGYLLKLSIVGWGFPVFLVTLVALVDVNNYGPIILAVRRTPERVTYPSMCWIRDSLVSYVTNLGLFSLVFLFNLAMLATMVVQILRLRPHSQNWPHVLTLLGLSLVLGLPWALVFFSFASGTFQLVILYLFSIITSFQGFLIFLWYWSMRFQAQGGPSPLKNNSDSAKLPISSGSTSSSRI

Variants of: B1
Conditions: with co3a1_mouse Col3a1, P08121
co3a1_mouse Col3a1, P08121, sequence (P08121 whole entry): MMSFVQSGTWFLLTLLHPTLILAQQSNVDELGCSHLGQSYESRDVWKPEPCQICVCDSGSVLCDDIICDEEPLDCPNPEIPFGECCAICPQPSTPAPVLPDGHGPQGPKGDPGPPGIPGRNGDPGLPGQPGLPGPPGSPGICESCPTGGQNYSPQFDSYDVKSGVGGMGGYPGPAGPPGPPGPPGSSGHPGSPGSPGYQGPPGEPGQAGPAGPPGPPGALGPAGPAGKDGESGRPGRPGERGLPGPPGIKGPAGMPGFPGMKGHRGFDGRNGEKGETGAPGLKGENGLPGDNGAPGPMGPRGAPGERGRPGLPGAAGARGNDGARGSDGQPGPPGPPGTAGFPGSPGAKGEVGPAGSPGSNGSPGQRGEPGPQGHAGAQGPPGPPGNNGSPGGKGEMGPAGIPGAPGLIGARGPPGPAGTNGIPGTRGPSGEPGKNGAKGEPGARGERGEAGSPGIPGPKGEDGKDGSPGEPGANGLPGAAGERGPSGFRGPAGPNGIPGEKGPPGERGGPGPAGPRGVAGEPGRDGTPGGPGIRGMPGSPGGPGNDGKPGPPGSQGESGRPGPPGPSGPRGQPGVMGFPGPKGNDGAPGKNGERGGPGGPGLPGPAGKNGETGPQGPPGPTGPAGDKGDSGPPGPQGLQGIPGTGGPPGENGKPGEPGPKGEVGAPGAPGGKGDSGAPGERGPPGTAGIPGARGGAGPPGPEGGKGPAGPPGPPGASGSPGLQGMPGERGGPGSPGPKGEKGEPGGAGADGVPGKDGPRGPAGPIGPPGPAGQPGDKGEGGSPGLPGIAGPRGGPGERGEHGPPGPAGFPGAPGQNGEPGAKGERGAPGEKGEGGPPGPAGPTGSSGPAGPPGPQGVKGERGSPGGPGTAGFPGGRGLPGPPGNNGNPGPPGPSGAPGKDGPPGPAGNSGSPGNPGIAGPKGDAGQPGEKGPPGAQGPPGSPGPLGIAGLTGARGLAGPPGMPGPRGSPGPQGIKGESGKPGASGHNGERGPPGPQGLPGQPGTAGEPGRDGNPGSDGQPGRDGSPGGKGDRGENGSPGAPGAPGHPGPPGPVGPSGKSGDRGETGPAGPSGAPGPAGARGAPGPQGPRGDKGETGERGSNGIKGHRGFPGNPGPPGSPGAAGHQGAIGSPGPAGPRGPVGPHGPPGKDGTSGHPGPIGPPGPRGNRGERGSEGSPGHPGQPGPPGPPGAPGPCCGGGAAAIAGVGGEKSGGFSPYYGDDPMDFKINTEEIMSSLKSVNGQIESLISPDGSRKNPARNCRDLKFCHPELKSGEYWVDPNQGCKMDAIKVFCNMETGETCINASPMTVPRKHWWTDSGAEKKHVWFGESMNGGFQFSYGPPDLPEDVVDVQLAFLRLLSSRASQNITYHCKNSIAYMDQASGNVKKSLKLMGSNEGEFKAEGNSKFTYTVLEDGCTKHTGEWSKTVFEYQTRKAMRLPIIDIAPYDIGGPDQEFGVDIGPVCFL

| effect of a mutation on the interaction | Variant |
| --- | --- |
| disrupting interaction | R38W |
| disrupting interaction | R38Q |
| disrupting interaction | C91S |
| disrupting interaction | Y88C |
